Assay results from IntAct's records for PubMed 12620186.

Biological target: wipf1_human WIPF1 (UniProt O43516)
Sequence (O43516 whole entry): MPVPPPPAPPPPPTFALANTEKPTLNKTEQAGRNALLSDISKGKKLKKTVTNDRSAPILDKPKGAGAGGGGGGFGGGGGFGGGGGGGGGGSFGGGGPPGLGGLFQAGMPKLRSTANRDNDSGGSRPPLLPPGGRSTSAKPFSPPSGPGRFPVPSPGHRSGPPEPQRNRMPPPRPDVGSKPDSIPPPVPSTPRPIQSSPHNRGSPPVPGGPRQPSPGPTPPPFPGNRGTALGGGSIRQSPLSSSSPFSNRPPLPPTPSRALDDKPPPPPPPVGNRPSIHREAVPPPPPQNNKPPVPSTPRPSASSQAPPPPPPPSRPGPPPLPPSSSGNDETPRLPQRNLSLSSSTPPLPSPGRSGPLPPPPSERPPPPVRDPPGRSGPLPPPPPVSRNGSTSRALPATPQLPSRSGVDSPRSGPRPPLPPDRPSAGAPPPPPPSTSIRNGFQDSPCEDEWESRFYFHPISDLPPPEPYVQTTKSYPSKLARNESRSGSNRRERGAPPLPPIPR

Src substrate cortactin (Mus musculus), Q60598 W526K, sequence (Q60598 whole entry W526K): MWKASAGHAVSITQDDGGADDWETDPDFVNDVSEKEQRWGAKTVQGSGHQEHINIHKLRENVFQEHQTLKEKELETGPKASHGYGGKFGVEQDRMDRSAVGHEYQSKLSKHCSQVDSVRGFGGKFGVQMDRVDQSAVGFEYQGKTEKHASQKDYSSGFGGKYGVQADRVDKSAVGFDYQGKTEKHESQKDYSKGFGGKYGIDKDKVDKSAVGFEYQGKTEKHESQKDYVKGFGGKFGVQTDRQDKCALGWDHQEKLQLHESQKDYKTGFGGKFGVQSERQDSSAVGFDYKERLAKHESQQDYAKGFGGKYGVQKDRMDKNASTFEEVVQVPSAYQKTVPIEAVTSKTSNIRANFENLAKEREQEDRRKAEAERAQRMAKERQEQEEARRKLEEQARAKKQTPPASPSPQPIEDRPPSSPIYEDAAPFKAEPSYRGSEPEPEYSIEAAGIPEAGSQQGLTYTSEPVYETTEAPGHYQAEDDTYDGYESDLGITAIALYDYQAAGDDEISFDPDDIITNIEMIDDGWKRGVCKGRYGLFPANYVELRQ

- effect of a mutation on the interaction: disrupting interaction
Substance: Src substrate cortactin (Mus musculus), Q60598 W526K
